According to US20090304686A1, “INTERFERING IN ACTIVATION OF AN IMMUNE CELL BY INFLUENCING INTERACTION OF LAIR AND COLLAGEN” (UNIVERSOTAIR MEDISCH CENTRUM UTRECHT, priority 2006, published 2009):

T1: human collagen type III (Homo sapiens, UniProt P02461)
T1 construct: purchased Sigma
T1 sequence (P02461 154-1221 limits assumed): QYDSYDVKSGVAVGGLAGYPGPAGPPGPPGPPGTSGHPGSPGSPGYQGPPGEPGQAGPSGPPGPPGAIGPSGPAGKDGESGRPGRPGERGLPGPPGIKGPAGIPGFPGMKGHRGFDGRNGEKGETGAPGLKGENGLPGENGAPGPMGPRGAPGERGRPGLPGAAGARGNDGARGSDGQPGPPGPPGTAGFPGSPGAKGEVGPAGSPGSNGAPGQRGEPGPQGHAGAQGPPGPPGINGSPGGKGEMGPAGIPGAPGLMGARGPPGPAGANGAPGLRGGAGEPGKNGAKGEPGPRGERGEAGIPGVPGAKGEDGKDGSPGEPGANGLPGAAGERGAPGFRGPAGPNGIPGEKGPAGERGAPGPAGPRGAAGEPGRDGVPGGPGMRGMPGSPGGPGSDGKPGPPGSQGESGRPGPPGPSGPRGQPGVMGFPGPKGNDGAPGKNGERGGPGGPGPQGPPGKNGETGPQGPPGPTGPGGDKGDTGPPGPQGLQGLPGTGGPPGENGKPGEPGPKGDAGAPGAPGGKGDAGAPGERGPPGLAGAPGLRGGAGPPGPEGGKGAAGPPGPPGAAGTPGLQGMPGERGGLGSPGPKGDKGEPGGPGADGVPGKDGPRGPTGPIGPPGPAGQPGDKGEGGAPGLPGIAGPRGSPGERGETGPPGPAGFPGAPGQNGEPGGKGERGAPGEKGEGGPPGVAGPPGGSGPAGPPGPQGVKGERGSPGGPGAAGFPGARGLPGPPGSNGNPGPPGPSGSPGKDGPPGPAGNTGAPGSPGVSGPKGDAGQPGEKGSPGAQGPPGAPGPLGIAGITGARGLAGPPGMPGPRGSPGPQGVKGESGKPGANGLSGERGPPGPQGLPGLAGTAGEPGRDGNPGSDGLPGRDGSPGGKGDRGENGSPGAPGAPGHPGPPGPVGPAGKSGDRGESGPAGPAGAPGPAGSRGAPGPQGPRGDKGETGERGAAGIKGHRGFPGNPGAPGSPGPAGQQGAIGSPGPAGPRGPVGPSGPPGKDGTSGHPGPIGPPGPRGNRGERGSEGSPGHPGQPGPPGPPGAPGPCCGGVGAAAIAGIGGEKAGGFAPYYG

T2: human collagen XVII (Homo sapiens, UniProt Q9UMD9)
T2 construct: Full-length human collagen XVII, HIS-tagged human collagen XIII, and human KIR3DL1 were kindly provided; expressed in transfected cells; host or cells: Ba/F3 (retroviral transduction)
T2 sequence (Q9UMD9 1-1497): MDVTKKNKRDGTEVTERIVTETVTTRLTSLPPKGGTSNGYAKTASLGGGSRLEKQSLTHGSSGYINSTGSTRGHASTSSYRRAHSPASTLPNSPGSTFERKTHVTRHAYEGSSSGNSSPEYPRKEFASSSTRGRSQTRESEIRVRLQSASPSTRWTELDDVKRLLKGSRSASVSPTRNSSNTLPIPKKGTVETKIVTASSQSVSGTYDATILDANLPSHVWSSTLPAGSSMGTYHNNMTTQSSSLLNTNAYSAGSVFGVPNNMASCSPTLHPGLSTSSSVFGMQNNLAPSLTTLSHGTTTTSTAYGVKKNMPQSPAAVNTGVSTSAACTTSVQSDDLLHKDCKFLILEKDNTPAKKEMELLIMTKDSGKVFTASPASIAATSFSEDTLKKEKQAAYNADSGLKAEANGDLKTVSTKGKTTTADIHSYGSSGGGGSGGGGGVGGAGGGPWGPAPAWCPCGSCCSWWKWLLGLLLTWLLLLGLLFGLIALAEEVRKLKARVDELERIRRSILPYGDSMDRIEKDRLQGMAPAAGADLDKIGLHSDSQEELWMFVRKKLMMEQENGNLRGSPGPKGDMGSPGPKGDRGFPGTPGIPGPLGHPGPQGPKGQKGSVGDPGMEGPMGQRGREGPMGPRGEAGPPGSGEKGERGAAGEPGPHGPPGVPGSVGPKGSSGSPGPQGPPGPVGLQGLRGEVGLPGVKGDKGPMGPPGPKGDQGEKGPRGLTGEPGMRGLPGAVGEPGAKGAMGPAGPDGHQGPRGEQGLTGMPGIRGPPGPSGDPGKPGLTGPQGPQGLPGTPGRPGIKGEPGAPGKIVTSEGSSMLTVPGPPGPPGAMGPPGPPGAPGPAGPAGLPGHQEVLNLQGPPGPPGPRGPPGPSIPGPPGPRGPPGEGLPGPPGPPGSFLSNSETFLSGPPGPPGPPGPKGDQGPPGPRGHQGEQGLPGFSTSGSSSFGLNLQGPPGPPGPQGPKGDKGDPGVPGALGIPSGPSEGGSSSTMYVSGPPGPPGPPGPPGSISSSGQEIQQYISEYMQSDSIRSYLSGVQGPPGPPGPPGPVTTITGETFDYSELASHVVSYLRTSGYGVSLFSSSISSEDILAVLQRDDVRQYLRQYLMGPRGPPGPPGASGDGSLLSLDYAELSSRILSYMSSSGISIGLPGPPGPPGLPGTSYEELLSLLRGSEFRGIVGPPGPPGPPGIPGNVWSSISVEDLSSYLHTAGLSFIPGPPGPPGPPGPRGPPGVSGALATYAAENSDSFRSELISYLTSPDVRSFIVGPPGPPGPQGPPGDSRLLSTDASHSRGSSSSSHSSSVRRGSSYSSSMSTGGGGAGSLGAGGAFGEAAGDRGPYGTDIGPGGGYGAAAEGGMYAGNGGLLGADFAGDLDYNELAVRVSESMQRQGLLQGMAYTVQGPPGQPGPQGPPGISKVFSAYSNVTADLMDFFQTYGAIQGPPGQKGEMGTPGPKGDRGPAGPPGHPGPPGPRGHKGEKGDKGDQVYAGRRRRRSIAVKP


Assays:
[1] = tested on: endogenous hLAIR-1 ligand(s) on HT29 cells; assay: Fusion protein blocking study on HT29 cells (flow cytometry); type: cell-based, human
Description: For fusion protein blocking studies, chimeric proteins of the extracellular domain of hLAIR-1 or LAIR-2 fused to the Fc region of human IgG1 were prepared as described previously(19). HT29 cells were pre-treated with 10% normal mouse serum to block aspecific interactions. Subsequently, HT29 cells were incubated with unlabeled hLAIR-1-IgG or LAIR-2-IgG for 10 minutes at room temperature and subsequently incubated with biotinylated hLAIR-1-IgG or LAIR-2-IgG for 30 minutes at room temperature. Binding of biotinylated proteins was detected with allophycocyanin (APC) conjungated streptavidin (BD Biosciences, San Diego, Calif.) and cells were analyzed by flow cytometry (FACSCalibur™, BD).

human collagen type III = target: T1, human collagen type III; assay: Surface plasmon resonance (BIAcore) binding of LAIR-IgG fusion proteins to immobilized collagen III
Description: (§1) Surface plasmon resonance (BIAcore) binding studies were performed using a BIAcore2000 system (BIAcore AB, Uppsala, Sweden). Approximately 2000-3000 response units (RU) of acid-soluble human collagen type I or III (Sigma) were immobilized on a CM5 biosensor chip using the amine coupling kit as instructed by the supplier. Immobilized triple-helical peptides composed of GCO(GPO)10GCOG-NH2 ((GPO)10, also known as collagen-related peptide, CRP^6) and GCP(GPP)10GCPG-NH2 ((GPP)10) were described previously^6. Approximately 250 RU (GPP)10 or (GPO)10 peptide trimers were immobilized using a cysteine coupling kit according manufacturers instructions. Analysis was performed in buffer (125 mM NaCl, 2.5 mM CaCl2, 0.005% (v/v) Tween 20, and 25 mM Hepes, (pH 7.4)) at 25° C. at a flow rate of 20 μl/min for collagen I and III interaction-studies and 5 μl/min for the immobilized peptides. […] Increasing concentrations of hLAIR-1-IgG were injected and allowed to reach an equilibrium plateau for 10 minutes. The delay between injections was 13 min, during which time the biosensor chip was flushed with buffer. In case of peptide-binding studies, biosensor chips were regenerated by injection of 0.1 M H3PO4 (2 min, 5 μl/min).
(§2) Dissociation constants (Kd) and the number of binding sites expressed as the response at infinite hLAIR-1-IgG concentration (Bmax) were calculated as follows. First, the response at equilibrium (Req) was calculated for each association curve. Subsequently, Kd and Bmax were determined from the binding isotherms (Req plotted against hLAIR-1-IgG concentration) by fitting equation Req=Bmax*[hLAIR-1-IgG]/(Kd+[hLAIR-1-IgG]). The fit was calculated using computer program GraphPad Prism (GraphPad Prism version 3.00 for Windows; GraphPad Software, San Diego, Calif., USA). […]
(§3) The surface plasmon resonance binding studies were performed as described before(15). LAIR-2-IgG dimer concentration was calculated based on a theoretical mass of 82.5 kDa.

human collagen type I = target: T3, human collagen type I (Homo sapiens, UniProt P02452+P08123); assay: Surface plasmon resonance (BIAcore) binding of LAIR-IgG fusion proteins to immobilized collagen I
T3 construct: purchased Sigma
T3 sequence (P02452 162-1218 limits assumed): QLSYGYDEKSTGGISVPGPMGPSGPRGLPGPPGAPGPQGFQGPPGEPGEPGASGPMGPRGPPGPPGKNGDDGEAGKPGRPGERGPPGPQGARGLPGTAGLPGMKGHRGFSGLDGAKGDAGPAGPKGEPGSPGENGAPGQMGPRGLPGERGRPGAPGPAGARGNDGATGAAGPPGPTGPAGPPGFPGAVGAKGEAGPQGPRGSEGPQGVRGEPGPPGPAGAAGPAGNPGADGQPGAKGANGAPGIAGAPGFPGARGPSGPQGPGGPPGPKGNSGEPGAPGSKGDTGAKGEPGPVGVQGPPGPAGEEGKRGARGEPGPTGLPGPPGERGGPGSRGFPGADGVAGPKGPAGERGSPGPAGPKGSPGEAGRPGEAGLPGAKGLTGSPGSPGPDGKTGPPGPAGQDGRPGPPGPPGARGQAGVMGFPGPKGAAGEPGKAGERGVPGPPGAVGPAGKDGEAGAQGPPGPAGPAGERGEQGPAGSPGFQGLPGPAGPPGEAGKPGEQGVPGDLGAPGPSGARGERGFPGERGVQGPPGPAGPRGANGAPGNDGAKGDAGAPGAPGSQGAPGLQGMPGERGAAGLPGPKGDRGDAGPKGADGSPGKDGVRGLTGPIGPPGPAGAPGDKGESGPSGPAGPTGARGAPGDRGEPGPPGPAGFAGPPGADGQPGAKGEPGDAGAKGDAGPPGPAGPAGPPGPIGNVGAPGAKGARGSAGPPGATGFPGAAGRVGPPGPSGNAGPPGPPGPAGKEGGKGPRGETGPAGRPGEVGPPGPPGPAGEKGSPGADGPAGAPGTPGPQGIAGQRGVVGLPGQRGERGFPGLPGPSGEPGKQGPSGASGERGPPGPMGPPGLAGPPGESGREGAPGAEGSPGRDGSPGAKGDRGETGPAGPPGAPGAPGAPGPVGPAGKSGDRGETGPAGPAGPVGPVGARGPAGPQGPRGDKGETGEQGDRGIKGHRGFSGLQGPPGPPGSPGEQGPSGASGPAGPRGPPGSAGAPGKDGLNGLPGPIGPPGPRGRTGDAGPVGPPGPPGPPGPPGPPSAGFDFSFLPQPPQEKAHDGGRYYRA
T3 sequence (P08123 80-1119 limits assumed): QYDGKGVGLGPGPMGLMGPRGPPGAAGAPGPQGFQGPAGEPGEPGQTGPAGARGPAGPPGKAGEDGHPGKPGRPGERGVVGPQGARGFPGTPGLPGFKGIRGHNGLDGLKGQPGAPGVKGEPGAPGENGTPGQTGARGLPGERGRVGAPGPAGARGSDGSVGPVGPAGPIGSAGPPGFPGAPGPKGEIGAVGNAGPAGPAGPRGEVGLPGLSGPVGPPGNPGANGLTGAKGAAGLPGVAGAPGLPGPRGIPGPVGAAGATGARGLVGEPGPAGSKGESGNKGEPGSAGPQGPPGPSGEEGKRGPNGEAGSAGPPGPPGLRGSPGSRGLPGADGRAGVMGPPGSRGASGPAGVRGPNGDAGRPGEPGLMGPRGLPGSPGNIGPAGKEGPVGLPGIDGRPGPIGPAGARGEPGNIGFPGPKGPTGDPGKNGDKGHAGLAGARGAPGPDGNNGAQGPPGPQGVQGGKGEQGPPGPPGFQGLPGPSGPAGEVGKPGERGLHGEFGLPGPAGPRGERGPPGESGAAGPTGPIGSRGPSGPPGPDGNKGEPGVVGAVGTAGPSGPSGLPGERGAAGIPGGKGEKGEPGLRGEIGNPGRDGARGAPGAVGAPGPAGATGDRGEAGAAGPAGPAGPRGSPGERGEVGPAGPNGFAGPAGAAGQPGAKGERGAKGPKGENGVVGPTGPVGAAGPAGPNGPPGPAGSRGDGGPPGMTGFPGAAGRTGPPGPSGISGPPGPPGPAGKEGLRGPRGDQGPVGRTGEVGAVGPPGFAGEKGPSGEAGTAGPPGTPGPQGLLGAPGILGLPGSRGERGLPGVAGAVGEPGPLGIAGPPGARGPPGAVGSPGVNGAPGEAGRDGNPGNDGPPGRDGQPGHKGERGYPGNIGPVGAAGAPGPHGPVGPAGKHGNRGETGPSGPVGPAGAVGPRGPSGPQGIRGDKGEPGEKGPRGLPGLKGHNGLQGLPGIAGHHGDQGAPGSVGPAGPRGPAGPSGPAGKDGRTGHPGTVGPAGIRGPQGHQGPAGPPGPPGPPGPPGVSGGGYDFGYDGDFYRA
Description: as §1, §2, §3

human collagen XVII = target: T2, human collagen XVII; assay: LAIR fusion protein staining of Ba/F3 cells transfected with human collagen XVII; type: binding
Description: Chimeric proteins of rat, mouse, and human LAIR-1 or human LAIR-2 fused to the Fc region of human IgG1 were prepared and cell lines were stained with these reagents in the absence or presence of blocking antibodies as described previously^11. When indicated, cells were incubated for 1 h with 100 units/ml chromatography purified C. histolyticum collagenase Type VII (Sigma) prior fusion-protein staining.

[2] = tested on: hLAIR-1/collagen interaction; assay: Blocking of binding of hLAIR-1 expressing K562 cells to plate-bound collagens I and III; type: cell-based, human; conditions: pre-incubation of plate-bound collagens
Description: Purified commercial collagens I, III (Sigma), II (Chemicon International), or BSA (100 μl/well, 20 μg/ml in PBS, 2 mM acetic acid) were coated overnight at 4° C. in 96-well MAXIsorp (Nunc) flat-bottom plates. After washings, wells were blocked with 1% (w/v) BSA. Meanwhile, 5×10^6 cells/ml wild type K562 cells or K562 transfectants were fluorescently labeled for 30 min at 37° C. with 5 μM calceine AM (Molecular Probes) in PBS. Cells were washed twice with RPMI/1% FCS and 100 μl medium of 1.5×10^6 cells/ml cells was added to each well and plates were incubated at 37° C. for 2 h. Input fluorescence was determined using a fluorescence plate reader (Fluoroskan Ascent, Thermo Labsystems), the plates were firmly flicked and washed for six times in culture medium. The retained fluorescence was determined for each well as a percentage of input fluorescence.
96-well MAXIsorp flat-bottom plates (Nunc) were coated overnight at 4° C. with purified collagens I or III (Sigma, 2 and 5 μg/ml respectively) or BSA (5 μg/ml) in 100 μl PBS, supplemented with 2 mM acetic acid. 5×10^6 cells/ml wild-type K562 or K562 stably transfected with hLAIR-1 were assayed for their capacity to adhere to the collagens in the 96 well plates as described before(15).

Row | binding to collagen III (in words) (human collagen type III) | dissociation from collagen (in words) (human collagen type III; hLAIR-1-IgG: collagen I and III, LAIR-2-IgG: collagen III, collagen I comparable) | binding to collagen I (in words) (human collagen type I) | higher affinity as compared to most IgSF-members interacting with their ligands (human collagen type I; collagen I and III) | binding to Ba/F3 cells stably transfected with human collagen XVII (human collagen XVII) | Molecule | biotinylated LAIR-2-IgG staining of HT29 cells after pre-incubation [1] | number of LAIR molecules / binding sites per single triple-helical collagen III molecule (Bmax) (human collagen type III; from Bmax of binding isotherm) | number of LAIR molecules / binding sites per single triple-helical collagen I molecule (Bmax) (human collagen type I; from Bmax of binding isotherm) | blocking of binding of hLAIR-1 expressing K562 cells to plate-bound collagens I and III [2]
1 | high affinity | relatively slow dissociation | high affinity | 20-1000 fold | specific binding | hLAIR-1-IgG: Chimeric protein of human LAIR-1 fused to the Fc region of human IgG1 (protein, left off: a dimerising Fc or GST, Chimeric protein of human LAIR-1 fused to the Fc region of human IgG1) QEEDLPRPSISAEPGTVIPLGSHVTFVCRGPVGVQTFRLERDSRSTYNDTEDVSQASPSESEARFRIDSVREGNAGLYRCIYYKPPKWSEQSDYLELLVKESSGGPDSPDTEPGSSAGPTQRPSDNSHNEHAPASQGLKAEHLY | reduced | ~9.7 | approximately 10.4 | 
2 |  |  |  |  |  | wild-type LAIR-2: wild-type LAIR-2 protein in concentrated supernatant from LAIR-2-transfected 293T cells (protein) QEGALPRPSISAEPGTVISPGSHVTFMCRGPVGVQTFRLEREDRAKYKDSYNVFRLGPSESEARFHIDSVSEGNAGLYRCLYYKPPGWSEHSDFLELLVKGTVPGTEASGFDAP |  |  |  | blocked
